Reference: doi:10.1101/2025.07.22.666160, “Alphaherpesvirus pUL21 homologues use non-canonical motifs to compete with cellular adaptors for protein phosphatase 1 binding” (bioRxiv, 2025)
Primed or numbered codes have the meaning given here. Where no end group is shown, it is not given here. FITC′ = fluorescein isothiocyanate; Ahx = NCCCCCC(=O)O

Columns and labels:
Settings in all cases: both partners purified
[1] = target: T1, mouse PP1γ catalytic domain (residues 7–300)-H6 (mouse, UniProt P63087 7-300); test: ITC; 25°C; 50 mM HEPES pH 8.0, 500 mM NaCl, 0.5 mM TCEP; 12 x 3 µL injections; one-site binding model; syringe and cell contents in Table S1
T1 construct: Protein phosphatase 1 gamma catalytic domain, mouse, residues 7-300; also called PP1 catalytic domain; source: E. coli T7 Express lysY/Iq, purified (Ni-NTA, SEC)

[2] = target: T1, mouse PP1γ catalytic domain (residues …); test: fluorescence polarisation; competition fluorescence anisotropy; competitor titrated into a pre-formed complex of 2 nM FITC-GADD34 peptide and 250 nM PP1γ (final); 27°C; 50 mM HEPES pH 8.0, 500 mM NaCl, 0.05% TWEEN-20
[3] = target: T1, mouse PP1γ catalytic domain (residues …); test: fluorescence polarisation; fluorescence anisotropy; serial dilution of PP1γ catalytic domain with 2 nM FITC-GADD34 peptide; Tris pH 8.5 in place of HEPES pH 8
[4] = target: T1, mouse PP1γ catalytic domain (residues …); test: fluorescence polarisation; fluorescence anisotropy; serial dilution of PP1γ catalytic domain with 2 nM FITC-GADD34 peptide; 27°C; 50 mM HEPES pH 8.0, 500 mM NaCl, 0.05% TWEEN-20; one-site model
[5] = target: T1, mouse PP1γ catalytic domain (residues …); test: fluorescence polarisation; competition fluorescence anisotropy; pUL21 titrated into a pre-formed complex of 2 nM FITC-GADD34 peptide and 250 nM PP1γ; Tris pH 8.5 in place of HEPES pH 8

T1 sequence (P63087 7-300): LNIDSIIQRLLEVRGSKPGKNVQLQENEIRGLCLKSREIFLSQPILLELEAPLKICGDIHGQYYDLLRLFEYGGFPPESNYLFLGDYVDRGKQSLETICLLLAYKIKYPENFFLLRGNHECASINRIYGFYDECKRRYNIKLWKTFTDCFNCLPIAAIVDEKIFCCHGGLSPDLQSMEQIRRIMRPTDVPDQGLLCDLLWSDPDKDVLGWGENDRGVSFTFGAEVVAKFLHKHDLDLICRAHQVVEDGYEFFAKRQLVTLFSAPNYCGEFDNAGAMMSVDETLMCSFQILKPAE

B1: pORF38-NLT-H6 (residues 1–263) (domain or fragment)
chain: MEFPYHSTVSYNGVTFYFNERATRAYFICGGCLISIPRKHGGEIAKFGHVVRGVGPGDRSVASYVRSELNRTGKTWAVSSNNNCVFLDRVALLAAGSGAVDRDLCGTFDVEVEDPTLADYLVSLPVTHLTLVAGVDVTRENKLKLFPTPTAINTTNGFMYVPNEASFSLVYMRMLELPESLQELVSGLFDGTPEIRDALNGSNDDEKTSIIVSRRAADVVTEDVKADDVPISGEPYSEKQPRRRKKSDHITLSNFVQIRTIPR
notes: VZV pORF38 residues 1-263: N-terminal domain plus linker region to the end of the TROPPO motif (NLT region); Sub-cloned into the vector pOPTnH; also called pOPF38-NLT; source: E. coli T7 Express lysY/Iq, purified (Ni-NTA, SEC); not shown: His6, C-terminal, kept
[1]
  Kd: 497 nM
  stoichiometry N: 1
[2]
  IC50: 417 nM

B2: GADD34 RVxF+ϕϕ[xF] peptide (residues 552–568), FITC-labelled (peptide)
peptide: {FITC′-Ahx}-KARKVRFSEKVTVHFLA
notes: GADD34 (PP1 regulatory subunit 15A, PPP1R15A), residues 552-568 with the RVxF and ϕϕ[xF] motifs; also called GADD34 peptide; fluorescent GADD34 peptide; source: synthetic peptide (GenScript, >95% purity)
[3]
  Kd: 55 nM
[4]
  Kd: 144 nM

B3: pUL21-RVxF-H6 (A237V+V239F) (natural protein)
chain: MELSYATTMHYRDVVFYVTTDRNRAYFVCGGCVYSVGRPCASQPGEIAKFGLVVRGTGPDDRVVANYVRSELRQRGLQDVRPIGEDEVFLDSVCLLNPNVSSELDVINTNDVEVLDECLAEYCTSLRTSPGVLISGLRVRAQDRIIELFEHPTIVNVSSHFVYTPSPYVFALAQAHLPRLPSSLEALVSGLFDGIPAPRQPLDAHNPRTDVVITGRRAPRPIAGSGAGSGGAGAKRVTFSEFVQVKHIDRVGPAGVSPAPPPNNTDSSSLVPGAQDSAPPGPTLRELWWVFYAADRALEEPRADSGLTREEVRAVRGFREQAWKLFGSAGAPRAFIGAALGLSPLQKLAVYYYIIHRERRLSPFPALVRLVGRYTQRHGLYVPRPDDPVLADAINGLFRDALAAGTTAEQLLMFDLLPPKDVPVGSDVQADSTALLRFIESQRLAVPGGVISPEHVAYLGAFLSVLYAGRGRMSAATHTARLTGVTSLVLAVGDVDRLSAFDRGAAGAASRTRAAGYLDVLLTVRLARSQHGQSV
notes: HSV-1 pUL21 with A237V and V239F, made from pUL21-H6 (the full-length protein) by site-directed mutagenesis; methods, results and legend say V239F; also called RVxF pUL21; A237V+V239F (RVxF) mutant; source: E. coli T7 Express lysY/Iq, purified (Ni-NTA, SEC); not shown: His6, C-terminal, kept
[5]
  IC50: 337 nM
